Results from paper PMC9242592, “Activation of the human chemokine receptor CX3CR1 regulated by cholesterol” (Science Advances, 2022).

B2: human dominant negative Gαi1 (DNGαi1) with S47C, G202T, G203A, E245A and A326S (natural protein)
chain: MGCTLSAEDKAAVERSKMIDRNLREDGEKAAREVKLLLLGAGESGKCTIVKQMKIIHEAGYSEEECKQYKAVVYSNTIQSIIAIIRAMGRLKIDFGDSARADDARQLFVLAGAAEEGFMTAELAGVIKRLWKDSGVQACFNRSREYQLNDSAAYYLNDLDRIAQPNYIPTQQDVLRTRVKTTGIVETHFTFKDLHFKMFDVTAQRSERKKWIHCFEGVTAIIFCVALSDYDLVLAEDEEMNRMHASMKLFDSICNNKWFTDTSIILFLNKKDLFEEKIKKSPLTICYPEYAGSNTYEEAAAYIQCQFEDLNKRKDTKEIYTHFTCSTDTKNVQFVFDAVTDVIIKNNLKDCGLF
notes: source: HighFive insect cells, coexpressed with the receptor and Gβ1/Gγ2, purified as complex (Strep-Tactin, SEC)

Tests used:
Settings in all cases: both partners purified
[1] = biological target: T1, CX3CR1 (residues 1 to 315; I120L, L176C, C221S, M250V) as it stands in construct-2 (human, UniProt P49238 1-315, I120^3.43L | L176^ECL2C | C221^ICL3S | M250^6.54V); experiment: cryo-EM structure; CX3CL1-bound CX3CR1-Gi1 complex; construct-2 (CX3CL1 fused to CX3CR1, disulfide G35C-L176C), DNGαi1 and Gβ1/Gγ2 coexpressed in HighFive cells and purified together (Strep-Tactin, SEC) in LMNG/CHS; 25 mM Hepes pH 7.5, 150 mM NaCl; apyrase treated
T1 construct: CX3CR1, human, residues 1 to 315; Not a free protein: the receptor part of the fusion m2; Written alone for the pair CX3CL1 with CX3CR1; source: HighFive insect cells, part of the fusion construct-2, purified as complex (Strep-Tactin, SEC); not shown: Twin-Strep-tag, C-terminal, kept
T1 sequence (looked up): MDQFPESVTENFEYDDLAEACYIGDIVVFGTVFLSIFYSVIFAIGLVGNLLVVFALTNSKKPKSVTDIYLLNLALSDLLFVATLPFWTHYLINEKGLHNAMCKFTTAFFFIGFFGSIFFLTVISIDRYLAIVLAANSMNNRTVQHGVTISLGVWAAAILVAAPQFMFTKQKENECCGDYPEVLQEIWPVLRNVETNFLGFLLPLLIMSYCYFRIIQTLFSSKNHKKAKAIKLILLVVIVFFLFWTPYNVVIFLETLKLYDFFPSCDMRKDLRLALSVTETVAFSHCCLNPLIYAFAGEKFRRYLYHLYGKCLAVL

[2] = biological target: T2, Modified CX3CL1-CX3CR1 fusion followed by the Twin-Strep-Tag at the C terminus ( | human, UniProt P78423 25-100; P49238 1-315, G35C | I120^3.43L | L176^ECL2C | C221^ICL3S | M250^6.54V, pyroglutamate at residue 1 of CX3CL1 (pE1); disulfide between G35C of CX3CL1 and L176C of CX3CR1); experiment: as above
T2 construct: CX3CL1 chemokine domain, residues 1 to 76; numbers count on: the mature protein (pE1 is residue 1); 28-residue linker (14 × Gly-Ser); CX3CR1, human, residues 1 to 315, as in construct-1 with the additional L176C; A signal peptide before CX3CL1 is not described; also called construct-2; fused form of CX3CR1-CX3CL1 with a cross-linking disulfide bond; source: HighFive insect cells, coexpressed with …
T2 sequence: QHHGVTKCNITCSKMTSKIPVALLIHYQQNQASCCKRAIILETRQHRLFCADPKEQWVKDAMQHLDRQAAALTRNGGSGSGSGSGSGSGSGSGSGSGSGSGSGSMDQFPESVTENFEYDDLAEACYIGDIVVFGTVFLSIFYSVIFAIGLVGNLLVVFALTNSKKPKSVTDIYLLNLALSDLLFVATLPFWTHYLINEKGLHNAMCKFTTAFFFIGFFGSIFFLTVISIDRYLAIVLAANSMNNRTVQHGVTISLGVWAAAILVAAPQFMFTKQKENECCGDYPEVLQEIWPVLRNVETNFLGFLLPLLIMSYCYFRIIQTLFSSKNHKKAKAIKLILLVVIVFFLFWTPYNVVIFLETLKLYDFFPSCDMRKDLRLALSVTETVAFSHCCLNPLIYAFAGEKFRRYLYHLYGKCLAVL

[3] = biological target: B2; experiment: cryo-EM structure; ligand-free CX3CR1-Gi1 complex; construct-1, DNGαi1 and Gβ1/Gγ2 coexpressed in HighFive cells and purified together (Strep-Tactin, SEC) in LMNG/GDN/CHS; 25 mM Hepes pH 7.5, 150 mM NaCl; apyrase treated

B1: CX3CL1 (residues 1 to 76, G35C) as it stands in construct-2 (ligand, UniProt P78423 25-100, looked up)
chain: QHHGVTKCNITCSKMTSKIPVALLIHYQQNQASCCKRAIILETRQHRLFCADPKEQWVKDAMQHLDRQAAALTRNG
modifications: pyroglutamate at 1 (pE1)
notes: CX3CL1 chemokine domain, residues 1 to 76; numbers count on: the mature protein (pE1 is residue 1); Written alone for the pair CX3CL1 with CX3CR1; also called chemokine CX3CL1; source: HighFive insect cells, part of the fusion construct-2, purified as complex (Strep-Tactin, SEC)
B1: binds [1].

B2: binds [2].

B3: Modified human CX3CR1 (residues 1 to 315) with three mutations (I120L, C221S, M250V) and a C-terminal Twin-Strep-tag (receptor, UniProt P49238 1-315, looked up)
chain: MDQFPESVTENFEYDDLAEACYIGDIVVFGTVFLSIFYSVIFAIGLVGNLLVVFALTNSKKPKSVTDIYLLNLALSDLLFVATLPFWTHYLINEKGLHNAMCKFTTAFFFIGFFGSIFFLTVISIDRYLAIVLAANSMNNRTVQHGVTISLGVWAAAILVAAPQFMFTKQKENECLGDYPEVLQEIWPVLRNVETNFLGFLLPLLIMSYCYFRIIQTLFSSKNHKKAKAIKLILLVVIVFFLFWTPYNVVIFLETLKLYDFFPSCDMRKDLRLALSVTETVAFSHCCLNPLIYAFAGEKFRRYLYHLYGKCLAVL
notes: CX3CR1, human, residues 1 to 315 (40 residues C316 to L355 truncated from the C terminus); also called construct-1; engineered construct; source: HighFive insect cells, coexpressed with DNGαi1 and Gβ1/Gγ2, purified as complex (Strep-Tactin, SEC); not shown: Twin-Strep-tag, C-terminal, kept
B3: binds [3].
